Assay [1] has as its target T1, IGF-IIE (amino acids 1-104 of pro-IGF-II) (human, UniProt P01344 25-128). Nature of the assay: cell-based or functional assay.
In assay [2] the target is T2, insulin-like growth factor II (IGF-II), amino acids 1-67 (human, UniProt P01344 25-91). The experiment in a line: cell-based or functional assay.
The target of assay [3] is T1, IGF-IIE (amino acids 1-104 of …). The experiment in a line: SPR (Flexchip), Fab, 2nd of duplicate.
The target in assay [4] is T2, insulin-like growth factor II (IGF-II), …. Nature of the assay: SPR (Flexchip), Fab, 2nd of duplicate.
In assay [5] the target is T1, IGF-IIE (amino acids 1-104 of …). The experiment in a line: competition SPR (BIACORE T100), affinity in solution, free ligand read on huIR-A ECD; measurement 2. As to the method: (§1) Competition SPR (BIACORE®) was performed under conditions of partially mass-transport limited conditions according to previously described methodology (Nieba et al., 1996). Approximately 16,700 relative response units (RU) of huIR-A (-exon11) ectodomain was coupled by standard amine chemistry to a BIACORE® CM5 chip sensor. Uncoated flow-cell surface was used as a reference. […] Regeneration of the surface was achieved by injection of 30 ul NaCltrate/NaCl pH 4.5. […] These Req estimates were subsequently plotted against total concentrations of Fab used and the resulting inhibition curve was utilised to calculate dissociation constant (KD).

In assay [6] the target is T2, insulin-like growth factor II (IGF-II), …. The assay is described as above. How it is done: as §1
Assay [7] deals with T1, IGF-IIE (amino acids 1-104 of …). Nature of the assay: competition SPR (BIACORE T100), affinity in solution, free ligand read on huIR-A ECD; measurement 1. How it is done:
as §1
(In SPR one partner is held on a chip, and binding of the other changes the refractive index at the surface.)

Assay [8] concerns the target T2, insulin-like growth factor II (IGF-II), …. The assay is described as above. As to the method:
as §1

Assay [9] addresses insulin-like growth factor I (IGF-I) (UniProt P05019 49-118). The experiment in a line: cell-based or functional assay.
The target of assay [10] is T1, IGF-IIE (amino acids 1-104 of …). Nature of the assay: SPR (Flexchip), Fab, 1st of duplicate.
For assay [11], the target named is T2, insulin-like growth factor II (IGF-II), …. The experiment in a line: SPR (Flexchip), Fab, 1st of duplicate.
Assay [12] addresses T1, IGF-IIE (amino acids 1-104 of …). The experiment in a line: SPR, IgG on Protein G', then ligand, then BP; competitor BP4; 0 = no significant competition, 5 = competes strongly. How it is done:
(§2) BIACORE® T100 and a CM5 chip coated with Protein G were utilised to set up following assay. Approximately 1000 RU of Protein G′ was immobilized on a CM5 chip using standard amine chemistry immobilization method.
(§3) 4) Protein G′ surface was finally regenerated by injection of 10 mM Glycine pH 1.5-injected at 30 ul/min for 60 sec.

Assay [13] concerns the target T2, insulin-like growth factor II (IGF-II), …. Described as above. How it is done: as §2, §3
The target in assay [14] is T1, IGF-IIE (amino acids 1-104 of …). The experiment in a line: cell-based or functional assay. The source holds these as a separate data set.
Assay [15] concerns the target T2, insulin-like growth factor II (IGF-II), …. The experiment in a line: cell-based or functional assay. The source holds these as a separate data set.
Assay [16] concerns the target T1, IGF-IIE (amino acids 1-104 of …). Nature of the assay: SPR, IgG on Protein G', then ligand, then BP; competitor BP2; 0 = no significant competition, 5 = competes strongly. As to the method: as §2, §3
For assay [17], the target named is T2, insulin-like growth factor II (IGF-II), …. The assay is described as above. How it is done:
as §2, §3

For assay [18], the target named is T3, IGF binding protein 2 (BP2) (UniProt P18065 36-325).
T3 construct: also called IGF BP2
T3 sequence (looked up): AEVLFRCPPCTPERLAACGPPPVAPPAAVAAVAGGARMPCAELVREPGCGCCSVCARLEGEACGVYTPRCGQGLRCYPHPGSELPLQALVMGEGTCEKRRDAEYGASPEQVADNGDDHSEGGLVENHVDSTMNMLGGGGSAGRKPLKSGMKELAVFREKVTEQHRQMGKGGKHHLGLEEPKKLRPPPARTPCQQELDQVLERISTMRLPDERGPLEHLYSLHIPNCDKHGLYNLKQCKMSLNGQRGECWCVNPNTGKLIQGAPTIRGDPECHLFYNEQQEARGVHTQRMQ
Nature of the assay: SPR (BIACORE T100): BP2 injected over M0064-E04 IgG captured on Protein G', with buffer in place of IGF-II.

For assay [19], the target named is T4, IGF binding protein 4 (BP4) (UniProt P22692 22-258).
T4 construct: also called IGF BP4
T4 sequence (looked up): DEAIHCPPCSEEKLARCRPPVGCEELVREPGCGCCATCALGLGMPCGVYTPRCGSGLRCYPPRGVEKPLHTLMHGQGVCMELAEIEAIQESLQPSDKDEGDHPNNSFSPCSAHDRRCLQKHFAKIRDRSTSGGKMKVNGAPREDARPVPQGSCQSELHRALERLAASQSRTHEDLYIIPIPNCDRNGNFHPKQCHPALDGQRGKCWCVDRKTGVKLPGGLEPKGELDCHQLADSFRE
Nature of the assay: SPR (BIACORE T100): BP4 injected over M0064-E04 IgG captured on Protein G', with buffer in place of IGF-II.

For assay [20], the target named is T1, IGF-IIE (amino acids 1-104 of …). The experiment in a line: SPR (BIACORE), IgG.
Assay [21] concerns the target T2, insulin-like growth factor II (IGF-II), …. Nature of the assay: SPR (BIACORE), IgG.

Positions count from the first letter of the chain named. Bounds are passed on as bounds.

T1 sequence (P01344 25-128): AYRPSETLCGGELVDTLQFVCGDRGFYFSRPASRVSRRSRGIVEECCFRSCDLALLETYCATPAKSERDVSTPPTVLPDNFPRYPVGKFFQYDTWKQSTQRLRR
Sequence of insulin-like growth factor I (IGF-I) (P05019 49-118 limits assumed): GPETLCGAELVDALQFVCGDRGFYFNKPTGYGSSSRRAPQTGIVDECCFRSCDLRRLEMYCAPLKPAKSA
T2 sequence (P01344 25-91): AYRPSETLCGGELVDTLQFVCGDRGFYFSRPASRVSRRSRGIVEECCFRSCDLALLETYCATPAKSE

B1: M0063-F02 Fab (Fab, V domains shown)
VH: EVQLLESGGGLVQPGGSLRLSCAASGFTFSKYEMDWVRQAPGKGLEWVSVISSSGGGTIYADSVKGRFTISRDNSKNTLYLQMNSLRAEDTAMYYCARGRTLYGGAFDIWGQGTMVTVSS
VL: DIQMTQSPSSLSASVGDRVTITCRASQPINTYLNWYQQRPGKAPRILIYTSSTLQSGVPSRFSGSGSGTDFTLTISSVQPEDFATYYCQQSYSFPLTFGGGTKVEIKR
notes: soluble Fab (sFab); also called R0032-A01
The Kd is the constant that tells how readily two partners part at equilibrium. The low end stands for tighter binding, the high end for weaker binding. With B1, the “IC50, IGF-IIE stimulated Ba/F3 cell proliferation (MTS)” value in [1] was 2.04 µg/mL. Besides, the “IC50, IGF-II stimulated Ba/F3 cell proliferation (MTS)” value in assay [2] was 5.56 µg/mL. In addition, the dissociation constant Kd in assay [3] is 200 pM; in assay [4], 1600 pM; in assay [5], 1470 pM; in [6], 858 pM; in assay [7], 2780 pM; in assay [8], 1170 pM. Moreover, the dissociation constant (Kd) in assay [10] was 120 pM; in [11], 770 pM. Moreover, in assay [9], the “IGF-I stimulated Ba/F3 cell proliferation, sFab at 50 µg/ml” value is roughly 30 % inhibition.

B2: M0063-F02 IgG (parental) (antibody, V domains shown)
VH: B1 VH
VL: DIQMTQSPSSLSASVGDRVTITCRASQPINTYLNWYQQRPGKAPRILIYTSSTLQSGVPSRFSGSGSGTDFTLTISSVQPEDFATYYCQQSYSFPLTFGGGTKVEIK
Consider B2, for which the competition score in assay [12] turned out to be 1 score 0-5; in [13], 0 score 0-5; in assay [16], 1 score 0-5; in assay [17], 1 score 0-5. Further, the “IC50, IGF-IIE stimulated Ba/F3 cell proliferation (Guava ViaCount)” value in assay [14] amounted to 850 pM. The “IC50, IGF-IIE stimulated Ba/F3 cell proliferation (Guava ViaCount), second study” value in assay [14] was roughly 10000 pM. Also, in assay [15], the “IC50, IGF-II stimulated Ba/F3 cell proliferation (Guava ViaCount)” value worked out at 2000 pM. Also, in assay [15], the “IC50, IGF-II stimulated Ba/F3 cell proliferation (Guava ViaCount), second study” value is roughly 7000 pM.

B3: M0072-C06 Fab (Fab, V domains shown)
VH: EVQLLESGGGLVQPGGSLRLSCAASGFTFSAYIMTWVRQAPGKGLEWVSSISPSGGYTVYADSVKGRFTISRDNSKNTLYLQMNSLRAEDTAVYYCARDSGFGDPFDYWGQGTMVTVSS
VL: DIQMTQSPSSLSASVGDRVTITCRASQSIRNYLNWYQQKPGKAPKLLIYAASKLEDGVPSRFSGSGTGTDFTLTIRSLQPEDFASYFCQQSYSSPGITFGPGTKVEIKR
notes: soluble Fab (sFab); also called R0032-A09
Consider B3, for which the “IC50, IGF-IIE stimulated Ba/F3 cell proliferation (MTS)” value in assay [1] was 2.3 µg/mL. Besides, the “IC50, IGF-II stimulated Ba/F3 cell proliferation (MTS)” value in assay [2] was 5.12 µg/mL. For the same molecule, the dissociation constant (Kd) in assay [4] was 700 pM; in [5], 1050 pM; in assay [6], 2520 pM; in assay [7] it was 3950 pM; in [8] it was 1640 pM; in assay [10], 520 pM. Also, the affinity in [11], expressed as Kd, was 5200 pM. Moreover, in assay [9], the “IGF-I stimulated Ba/F3 cell proliferation, sFab at 50 µg/ml” value is roughly 30 % inhibition.

B4: M0064-E04 Fab (Fab, V domains shown)
VH: EVQLLESGGGLVQPGGSLRLSCAASGFTFSVYDMNWVRQAPGKGLEWVSSISSSGGGTLYADSVKGRFTISRDNSKNTLYLQMNSLRAEDTAVYYCARDSDTSSYYWYYDLWGRGTLVTVSS
VL: DIQMTQSPSSLSASVGDRVTITCQASHDISNYLNWYQQKPGKAPKLLIYAASRLQSGVPSRFSGGGSGTDFSLTISSLQAEDFATYYCQQSYSFPRTFGQGTNLEIKR
notes: soluble Fab (sFab); also called R0032-A03; 566A-M0064-E04
B4: in assay [1], the “IC50, IGF-IIE stimulated Ba/F3 cell proliferation (MTS)” value was found to be 5.46 µg/mL. The “IC50, IGF-II stimulated Ba/F3 cell proliferation (MTS)” value in assay [2] was determined as 3.04 µg/mL. Also, the Kd in assay [3] turned out to be 120 pM; in [4] it was 250 pM; in assay [5], 424 pM; in assay [6], 1110 pM; in [7] it was 429 pM; in [8], 608 pM. Besides, the Kd is 93 pM in assay [10] and 120 pM in [11]. The “IGF-I stimulated Ba/F3 cell proliferation, sFab at 50 µg/ml” value in assay [9] is roughly 30 % inhibition.

B5: M0064-E04 IgG (parental, non-germlined) (antibody, V domains shown)
VH: B4 VH
VL: DIQMTQSPSSLSASVGDRVTITCQASHDISNYLNWYQQKPGKAPKLLIYAASRLQSGVPSRFSGGGSGTDFSLTISSLQAEDFATYYCQQSYSFPRTFGQGTNLEIK
For B5, the binding result in assay [18] and in assay [19] was “no binding (tested: 50.0 nM)” each time. The competition score in [12] came to 4 score 0-5; in [13], 5 score 0-5; in [16] it was 4 score 0-5; in assay [17], 5 score 0-5. Moreover, the Kd amounted to 240 pM in assay [20] and 520 pM in assay [21]. In addition, the “IC50, IGF-IIE stimulated Ba/F3 cell proliferation (Guava ViaCount)” value in assay [14] is roughly 130000 pM. In assay [15], the “IC50, IGF-II stimulated Ba/F3 cell proliferation (Guava ViaCount)” value is roughly 19000 pM.

B6: M0064-F02 IgG (parental, non-germlined) (antibody, V domains shown)
VH: EVQLLESGGGLVQPGGSLRLSCAASGFTFSNYIMWWVRQAPGKGLEWVSVISSSGGMTRYADSVKGRFTISRDNSKNTLYLQMNSLRAEDTAVYYCARDNGDYVGEKGFDIWGQGTMVTVSS
VL: DIQMTQSPSSLSASVGDRVTITCRASQSISNYLNWYQQKPGKAPKLLIYTASTLQSGVPSRFSGSASGTDFTLTINSLQPEDFATYSCQQSYNSPWTFGQGTKVEIK
Regarding B6, the competition score in [12], in [13], in [16] and in assay [17] was 4 score 0-5 each time. The results for the Kd in assay [20] and in assay [21] were 32 pM and 140 pM, respectively.

B7: X0008-A01 (germlined M0064-F02 IgG) (antibody, V domains shown)
VH: B6 VH
VL: B6 VL with A66G, N76S, S87Y
For the molecule B7, the dissociation constant Kd in assay [20] is less than 23 pM; in [21], 23 pM.

The values above are taken from patent publication US20110165145A1 (published 2011).
